Experiment [1] has as its target T1, human 4-1BB ligand (4-1BB-L), cell surface (human, UniProt P41273 1-254).
T1 construct: Native on the anti-CD3-stimulated PL1 (PL-1) T cell clone, the source of the cDNA; Recombinant full length on transfected CV-1/EBNA cells; also called hu4-1BB-L; clone 7A
The experiment can be described thus: slide autoradiography on transfected CV-1 cells.

Experiment [2] deals with T2, murine 4-1BB ligand (4-1BB-L), cell surface (murine, UniProt P41274 1-309).
T2 construct: Native on EL4 6.1C10 and EL4 6.1 thymoma cells, the source of the cDNA; Recombinant full length on transfected COS and CV-1 cells; also called mu4-1BB-L; native surface mu4-1BB-L
T2 sequence: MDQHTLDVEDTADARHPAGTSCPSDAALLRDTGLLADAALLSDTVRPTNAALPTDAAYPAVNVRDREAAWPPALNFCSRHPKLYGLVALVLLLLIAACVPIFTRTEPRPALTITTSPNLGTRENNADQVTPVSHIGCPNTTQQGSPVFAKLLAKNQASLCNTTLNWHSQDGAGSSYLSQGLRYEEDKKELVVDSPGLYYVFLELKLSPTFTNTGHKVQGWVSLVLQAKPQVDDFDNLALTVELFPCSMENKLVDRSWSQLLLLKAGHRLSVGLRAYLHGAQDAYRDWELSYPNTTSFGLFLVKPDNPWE
Description: Scatchard analysis, 125I-4-1BB/Fc binding to EL4 6.1C10 cells. Here is the method:
Several cell lines were screened for the ability to bind the radioiodinated murine 4-1BB/Fc fusion protein described in Example 1. Briefly, quantitative binding studies were performed according to standard methodology, and Scatchard plots were derived for the various cell lines. […] The EL4 6.1C10 cell line was derived from a subclone designated EL4 6.1 by using a cell sorter to enrich for a cell population expressing high levels of murine type I Interleukin-1 receptor, as described in U.S. Pat. No. 4,968,607. EL4 6.1 had been derived from a mouse thymoma cell line EL-4 (ATCC TIB39) as described by MacDonald et al. (J. Immunol. 135:3944, 1985) and Lowenthal and MacDonald (J. Exp. Med. 164:1060, 1986).

T1 sequence (P41273 whole entry): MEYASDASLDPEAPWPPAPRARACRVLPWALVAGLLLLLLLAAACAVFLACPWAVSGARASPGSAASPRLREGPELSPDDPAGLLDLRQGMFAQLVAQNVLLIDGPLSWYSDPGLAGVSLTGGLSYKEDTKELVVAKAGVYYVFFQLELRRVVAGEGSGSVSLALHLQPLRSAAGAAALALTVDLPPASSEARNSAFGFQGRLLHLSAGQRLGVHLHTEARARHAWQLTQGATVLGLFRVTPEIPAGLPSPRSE

B1: murine 4-1BB/Fc fusion protein (Fc fusion)
chain: VQNSCDNCQPGTFCRKYNPVCKSCPPSTFSSIGGQPNCNICRVCAGYFRFKKFCSSTHNAECECIEGFHCLGPQCTRCEKDCRPGQELTKQGCKTCSLGTFNDQNGTGVCRPWTNCSLDGRSVLKTGTTEKDVVCGPPVVSFSPSTTISVTPEEPRSCDKTHTCPPCPAPELLGGPSVFLFPPKPKDTLMISRTPEVTCVVVDVSHEDPEVKFNWYVDGVEVHNAKTKPREEQYNSTYRVVSVLTVLHQDWLNGKDYKCKVSNKALPAPMQKTISKAKGQPREPQVYTLPPSRDELTKNQVSLTCLVKGFYPRHIAVEWESNGQPENNYKTTPPVLDSDGSFFLYSKLTVDKSRWQQGNVFSCSVMHEALHNHYTQKSLSLSPGK
modifications: 125I-radioiodinated where used as tracer
notes: The murine IL-7 leader of the vector is cleaved on secretion; Fc is joined through the BglII site; also called mu4-1BB/Fc; soluble murine 4-1BB/Fc
Consider B1, for which, in experiment [1], the binding result is “no binding”. In experiment [2], the Ka was ~2e+09 M⁻¹.

(Values after patent US20060127985A1 (IMMUNEX, published 2006).)
